“And” between values parts separate entries of the source, which are not always exact repeats. Equal entries are not always repeated.
Columns and labels:
Details in all cases: both partners purified
[1] = target: T1, RBD-Fc (SARS-CoV-2, wild-type RBD (P0DTC2 …)); assay: SPR; […]; Biacore T200, PBS pH 7.4 with 0.005% P20, 25 °C; 1:1 binding model; […]
T1 construct: also called RBD (immobilized as RBD-Fc on the chip)

[2] = target: T2, biotinylated RBD (wild type) (SARS-CoV-2, wild-type RBD (P0DTC2 …)); assay: SPR; […]; Biacore T200, PBS pH 7.4 with 0.005% P20, 25 °C; kinetic fit, 1:1 binding model; […]
[3] = target: T2, biotinylated RBD (wild type); assay: SPR; […]; Biacore T200, PBS pH 7.4 with 0.005% P20, 25 °C; […]
[4] = target: RBD-Fc (SARS-CoV-2, wild-type RBD (P0DTC2 …)); assay: SPR; Biacore T200, PBS pH 7.4 with 0.005% P20, 25 °C; […]; 1:1 binding model
[5] = target: biotinylated RBD (SARS-CoV-2, wild-type RBD (P0DTC2 …)); assay: SPR; Biacore T200, PBS pH 7.4 with 0.005% P20, 25 °C; […]

B1: H11-A10 (VHH)
VHH: QVQLVESGGGLMQAGGSLRLSCAVSGRTFSTAAMGWFRQAPGKEREFVAAIRWSGGSAYYADSVKGRFTISRDKAKNTVYLQMNSLKYEDTAVYYCAGFSATRSLLSDYATWPYDYWGQGTQVTVSS
In the case of B1, the Kd [1] is reported as 9.2 nM and 9.3 nM, the koff [1] is reported as 0.055 s⁻¹ and 0.047 s⁻¹ and the kon [1] is reported as 5.9e+06 M⁻¹ s⁻¹ and 5e+06 M⁻¹ s⁻¹.

B2: H11-B5 (VHH)
VHH: QVQLVESGGGLMQAGGSLRLSCAVSGRTFSTAAMGWFRQAPGKEREFVAAIRWSGGSAYYADSVKGRFTISRDKAKNTVYLQMNSLKYEDTAVYYCASYQATRSLLSDYATWPYDYWGQGTQVTVSS
For B2, the Kd [1] was 8.8 nM and 7.6 nM, the koff [1] was 0.051 s⁻¹ and 0.046 s⁻¹ and the kon [1] was 5.8e+06 M⁻¹ s⁻¹ and 6.1e+06 M⁻¹ s⁻¹.

B3: H11-H6 (VHH)
VHH: QVQLVESGGGLMQAGGSLRLSCAVSGRTFSTAAMGWFRQAPGKEREFVAAIRWSGGSAYYADSVKGRFTISRDKAKNTVYLQMNSLKYEDTAVYYCAGSKITRSLLSDYATWPYDYWGQGTQVTVSS
With B3 the Kd [1] was 8.1 nM and 8.3 nM, the koff [1] was 0.032 s⁻¹ and 0.025 s⁻¹ and the kon [1] was 3.9e+06 M⁻¹ s⁻¹ and 3e+06 M⁻¹ s⁻¹.

B4: H11-H4 Y104F (VHH)
VHH: QVQLVESGGGLMQAGGSLRLSCAVSGRTFSTAAMGWFRQAPGKEREFVAAIRWSGGSAYYADSVKGRFTISRDKAKNTVYLQMNSLKYEDTAVYYCAQTHYVSFLLSDYATWPYDYWGQGTQVTVSS
For B4, the Kd [2] was 37.4 nM and 33.2 nM, the koff [2] was 0.072 s⁻¹ and 0.074 s⁻¹ and the kon [2] was 1.9e+06 M⁻¹ s⁻¹ and 2.2e+06 M⁻¹ s⁻¹.

B5: H11-H4 Q98R H100E (D4 hybrid) (VHH)
VHH: QVQLVESGGGLMQAGGSLRLSCAVSGRTFSTAAMGWFRQAPGKEREFVAAIRWSGGSAYYADSVKGRFTISRDKAKNTVYLQMNSLKYEDTAVYYCARTEYVSYLLSDYATWPYDYWGQGTQVTVSS
With B5 the Kd [2] was 4.3 nM and 4.8 nM, the koff [2] was 0.024 s⁻¹ and 0.025 s⁻¹ and the kon [2] was 5.5e+06 M⁻¹ s⁻¹ and 5.2e+06 M⁻¹ s⁻¹.

B6: H11-H4 Y101A (VHH)
VHH: QVQLVESGGGLMQAGGSLRLSCAVSGRTFSTAAMGWFRQAPGKEREFVAAIRWSGGSAYYADSVKGRFTISRDKAKNTVYLQMNSLKYEDTAVYYCAQTHAVSYLLSDYATWPYDYWGQGTQVTVSS
For B6, the Kd [3] was 791 nM.

B7: H11-H4 Y104S (VHH)
VHH: QVQLVESGGGLMQAGGSLRLSCAVSGRTFSTAAMGWFRQAPGKEREFVAAIRWSGGSAYYADSVKGRFTISRDKAKNTVYLQMNSLKYEDTAVYYCAQTHYVSSLLSDYATWPYDYWGQGTQVTVSS
In the case of B7, the Kd [3] is reported as 273 nM.

B8: H11 V101Y R103S (VHH)
VHH: QVQLVESGGGLMQAGGSLRLSCAVSGRTFSTAAMGWFRQAPGKEREFVAAIRWSGGSAYYADSVKGRFTISRDKAKNTVYLQMNSLKYEDTAVYYCAQTRYTSSLLSDYATWPYDYWGQGTQVTVSS
For B8, the Kd [3] was 1700 nM.

B9: nanobody H11-A10 (VHH)
VHH: QVQLVESGGGLMQAGGSLRLSCAVSGRTFSTAAMGWFRQAPGKEREFVAAIRWSGGSAYYADSVKGRFTISRDKAKNTVYLQMNSLKYEDTAVYYCAGFSATRSLLSDYATWPYDYWGQGTQVTVSS
For B9, the t1/2 [4] was 14 s.

B10: nanobody H11-H6 (VHH)
VHH: QVQLVESGGGLMQAGGSLRLSCAVSGRTFSTAAMGWFRQAPGKEREFVAAIRWSGGSAYYADSVKGRFTISRDKAKNTVYLQMNSLKYEDTAVYYCAGSKITRSLLSDYATWPYDYWGQGTQVTVSS
B10 showed a t1/2 [4] of 25 s.

B11: nanobody H11-B5 (VHH)
VHH: QVQLVESGGGLMQAGGSLRLSCAVSGRTFSTAAMGWFRQAPGKEREFVAAIRWSGGSAYYADSVKGRFTISRDKAKNTVYLQMNSLKYEDTAVYYCASYQATRSLLSDYATWPYDYWGQGTQVTVSS
Work on B11 yielded a t1/2 [4] of 14 s.

B12: nanobody H11-H4 R52E (VHH)
VHH: QVQLVESGGGLMQAGGSLRLSCAVSGRTFSTAAMGWFRQAPGKEREFVAAIEWSGGSAYYADSVKGRFTISRDKAKNTVYLQMNSLKYEDTAVYYCAQTHYVSYLLSDYATWPYDYWGQGTQVTVSS
B12: no binding [5].

B13: nanobody H11-H4 R52A (VHH)
VHH: QVQLVESGGGLMQAGGSLRLSCAVSGRTFSTAAMGWFRQAPGKEREFVAAIAWSGGSAYYADSVKGRFTISRDKAKNTVYLQMNSLKYEDTAVYYCAQTHYVSYLLSDYATWPYDYWGQGTQVTVSS
B13: no binding [5].

B14: nanobody H11-H4 R52K (VHH)
VHH: QVQLVESGGGLMQAGGSLRLSCAVSGRTFSTAAMGWFRQAPGKEREFVAAIKWSGGSAYYADSVKGRFTISRDKAKNTVYLQMNSLKYEDTAVYYCAQTHYVSYLLSDYATWPYDYWGQGTQVTVSS
B14: no binding [5].

Reference: publication PMC9351521 (Proceedings of the National Academy of Sciences of the …, 2022)
